The results in this text go back to paper PMC3978073, “Flexibility of the Linker between the Domains of DNA Methyltransferase SsoII Revealed by Small-Angle X-Ray Scattering: Implications for Transcription Regulation in SsoII Restriction–Modification Syste”.

For the data set, the target named is T1, M.SsoII (C5-DNA methyltransferase SsoII) (Shigella sonnei, UniProt P34879 1-379).
T1 sequence: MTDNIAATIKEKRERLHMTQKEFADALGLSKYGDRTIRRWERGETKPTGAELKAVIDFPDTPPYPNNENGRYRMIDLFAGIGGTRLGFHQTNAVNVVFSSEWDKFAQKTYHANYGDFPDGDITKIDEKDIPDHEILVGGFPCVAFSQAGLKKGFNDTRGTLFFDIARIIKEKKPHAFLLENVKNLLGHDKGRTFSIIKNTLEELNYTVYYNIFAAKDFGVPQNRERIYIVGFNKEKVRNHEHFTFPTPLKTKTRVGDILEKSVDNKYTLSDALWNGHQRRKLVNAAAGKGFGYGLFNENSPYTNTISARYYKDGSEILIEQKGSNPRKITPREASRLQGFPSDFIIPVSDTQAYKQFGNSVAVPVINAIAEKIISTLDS
Briefly: EMSA (native PAGE, EtBr and Coomassie stain); AdoHcy; M.SsoII:AdoHcy:DNA 1:2:1; Complex formation: 18 mM Tris-HCl, 136 mM NaCl, 3.5 mM beta-mercaptoethanol, 10% (w/v) glycerol, pH 8.0, with AdoHcy; temperature not stated; 7% native PAGE. Particulars: protein: recombinant; (HisTrap purified; tag not described); blunt.

B1: 15met (dsDNA)
DNA 1: AGAGCCAGGAACCGA
DNA 2: TCGGTTCCTGGCTCT
On to B1, for which the binding result is on record as “binds”.
